Measurements published in patent US6703362 (CYTOGEN, dated 2004).

T1: D2H receptor domain (human D2H transporter, amino acid residues 387-685), His-tag fusion protein (human, UniProt Q07837 387-685)
T1 construct: purified under denaturing conditions; also called recombinant D2H; not shown: poly-histidine tag (pET vector) at the NH2-terminal end
T1 sequence: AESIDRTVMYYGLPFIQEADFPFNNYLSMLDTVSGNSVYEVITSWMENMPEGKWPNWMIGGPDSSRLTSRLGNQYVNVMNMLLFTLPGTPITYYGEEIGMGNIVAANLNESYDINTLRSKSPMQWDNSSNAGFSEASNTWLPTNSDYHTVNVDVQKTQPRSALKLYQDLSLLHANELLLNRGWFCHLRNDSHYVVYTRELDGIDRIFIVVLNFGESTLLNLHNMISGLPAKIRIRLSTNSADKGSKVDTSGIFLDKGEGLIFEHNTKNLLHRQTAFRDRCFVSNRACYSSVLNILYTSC

T2: HPT1 receptor domain (human intestinal peptide-associated transporter HPT1, amino acid residues 29-273), … (human, UniProt Q12864 29-273)
T2 construct: purified under denaturing conditions; also called recombinant HPT1; not shown: poly-histidine tag (pET vector) at the NH2-terminal end
T2 sequence: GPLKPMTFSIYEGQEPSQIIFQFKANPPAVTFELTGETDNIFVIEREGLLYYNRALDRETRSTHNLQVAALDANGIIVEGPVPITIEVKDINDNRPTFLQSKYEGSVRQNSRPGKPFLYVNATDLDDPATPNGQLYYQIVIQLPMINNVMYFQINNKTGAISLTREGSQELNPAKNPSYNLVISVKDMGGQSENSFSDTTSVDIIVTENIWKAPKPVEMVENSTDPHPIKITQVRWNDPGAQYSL

T3: hPEPT1 receptor domain (human PEPT1, amino acid residues 391-571), His-tag fusion protein (human, UniProt P46059 391-571)
T3 construct: purified under denaturing conditions; also called recombinant hPEPT1; not shown: poly-histidine tag (pET vector) at the NH2-terminal end
T3 sequence: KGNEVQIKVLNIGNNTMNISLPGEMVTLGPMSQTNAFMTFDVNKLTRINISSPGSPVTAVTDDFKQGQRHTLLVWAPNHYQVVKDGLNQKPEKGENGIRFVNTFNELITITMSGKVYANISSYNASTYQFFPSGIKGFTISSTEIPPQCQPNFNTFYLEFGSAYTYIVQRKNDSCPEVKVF

B1: DCX45 (peptide)
peptide: SVGNDKTSRPVSFYGRVSDLWNASLMPKRTPSSKRHDDGAETVESCLAKPHTENSFTNVWKDDKTLDRYANYEGCLWNATGVVVCTGDETQCYGTWVPIGLAIPENEGGGSEGGGSEGGGSEGGGTKPPEYGDTPIPGYTYINPLDGTYPPGTEQNPANPNPSLEESQPLNTFMFQNNRFRNRQGALTVYTGTVTQGTDPVKTYYQYTPVSSKAMYDAYWNGKFRDCAFHSGFNEDPFVCEYQGQSSDLPQPPVNAGGGSGGGSGGGSEGGGSEGGGSEGGGSEGGGSGGGSGSGDFDYEKMANANKGAMTENADENALQSDAKGKLDSVATDYGAAIDGFIGDVSGLANGNGATGDFAGSNSQMAQVGDGDNSPLMNNFRQYLPSLPQSVECRPFVFSAGKPYEFSIDCDKINLFRGVFAFLLYVATFMYVFSTFANILRNKES
notes: Assayed as M13 phage clone displaying the insert
B2: DCX42 (peptide)
peptide: RYSGLSPRDNGPACSQEATLEGCGAQRLMSTRRKGRNSRPGWTLAETVESCLAKPHTENSFTNVWKDDKTLDRYANYEGCLWNATGVVVCTGDETQCYGTWVPIGLAIPENEGGGSEGGGSEGGGSEGGGTKPPEYGDTPIPGYTYINPLDGTYPPGTEQNPANPNPSLEESQPLNTFMFQNNRFRNRQGALTVYTGTVTQGTDPVKTYYQYTPVSSKAMYDAYWNGKFRDCAFHSGFNEDPFVCEYQGQSSDLPQPPVNAGGGSGGGSGGGSEGGGSEGGGSEGGGSEGGGSGGGSGSGDFDYEKMANANKGAMTENADENALQSDAKGKLDSVATDYGAAIDGFIGDVSGLANGNGATGDFAGSNSQMAQVGDGDNSPLMNNFRQYLPSLPQSVECRPFVFSAGKPYEFSIDCDKINLFRGVFAFLLYVATFMYVFSTFANILRNKES
notes: as for B1
B3: HAX9 (peptide)
peptide: SREEANWDGYKREMSHRSRFWDATHLSRPRRPANSGDPNAETVESCLAKPHTENSFTNVWKDDKTLDRYANYEGCLWNATGVVVCTGDETQCYGTWVPIGLAIPENEGGGSEGGGSEGGGSEGGGTKPPEYGDTPIPGYTYINPLDGTYPPGTEQNPANPNPSLEESQPLNTFMFQNNRFRNRQGALTVYTGTVTQGTDPVKTYYQYTPVSSKAMYDAYWNGKFRDCAFHSGFNEDPFVCEYQGQSSDLPQPPVNAGGGSGGGSGGGSEGGGSEGGGSEGGGSEGGGSGGGSGSGDFDYEKMANANKGAMTENADENALQSDAKGKLDSVATDYGAAIDGFIGDVSGLANGNGATGDFAGSNSQMAQVGDGDNSPLMNNFRQYLPSLPQSVECRPFVFSAGKPYEFSIDCDKINLFRGVFAFLLYVATFMYVFSTFANILRNKES
notes: as for B1
B4: P90 (peptide)
peptide: SSADAEKCAGSLLWWGRQNNSGCGSPTKKHLKHRNRSQTSSSSHAETVESCLAKPHTENSFTNVWKDDKTLDRYANYEGCLWNATGVVVCTGDETQCYGTWVPIGLAIPENEGGGSEGGGSEGGGSEGGGTKPPEYGDTPIPGYTYINPLDGTYPPGTEQNPANPNPSLEESQPLNTFMFQNNRFRNRQGALTVYTGTVTQGTDPVKTYYQYTPVSSKAMYDAYWNGKFRDCAFHSGFNEDPFVCEYQGQSSDLPQPPVNAGGGSGGGSGGGSEGGGSEGGGSEGGGSEGGGSGGGSGSGDFDYEKMANANKGAMTENADENALQSDAKGKLDSVATDYGAAIDGFIGDVSGLANGNGATGDFAGSNSQMAQVGDGDNSPLMNNFRQYLPSLPQSVECRPFVFSAGKPYEFSIDCDKINLFRGVFAFLLYVATFMYVFSTFANILRNKES
notes: as for B1
B5: DCX36 (peptide)
peptide: SWSSWNWSSKTTRLGDRATREGCGPSQSDGCPYNGRLTTVKPRTAETVESCLAKPHTENSFTNVWKDDKTLDRYANYEGCLWNATGVVVCTGDETQCYGTWVPIGLAIPENEGGGSEGGGSEGGGSEGGGTKPPEYGDTPIPGYTYINPLDGTYPPGTEQNPANPNPSLEESQPLNTFMFQNNRFRNRQGALTVYTGTVTQGTDPVKTYYQYTPVSSKAMYDAYWNGKFRDCAFHSGFNEDPFVCEYQGQSSDLPQPPVNAGGGSGGGSGGGSEGGGSEGGGSEGGGSEGGGSGGGSGSGDFDYEKMANANKGAMTENADENALQSDAKGKLDSVATDYGAAIDGFIGDVSGLANGNGATGDFAGSNSQMAQVGDGDNSPLMNNFRQYLPSLPQSVECRPFVFSAGKPYEFSIDCDKINLFRGVFAFLLYVATFMYVFSTFANILRNKES
notes: as for B1
B6: P31 (peptide)
peptide: SARDSGPAEDGSRAVRLNGVENANTRKSSRSNPRGRRHPAETVESCLAKPHTENSFTNVWKDDKTLDRYANYEGCLWNATGVVVCTGDETQCYGTWVPIGLAIPENEGGGSEGGGSEGGGSEGGGTKPPEYGDTPIPGYTYINPLDGTYPPGTEQNPANPNPSLEESQPLNTFMFQNNRFRNRQGALTVYTGTVTQGTDPVKTYYQYTPVSSKAMYDAYWNGKFRDCAFHSGFNEDPFVCEYQGQSSDLPQPPVNAGGGSGGGSGGGSEGGGSEGGGSEGGGSEGGGSGGGSGSGDFDYEKMANANKGAMTENADENALQSDAKGKLDSVATDYGAAIDGFIGDVSGLANGNGATGDFAGSNSQMAQVGDGDNSPLMNNFRQYLPSLPQSVECRPFVFSAGKPYEFSIDCDKINLFRGVFAFLLYVATFMYVFSTFANILRNKES
notes: as for B1
B7: 5PAX5 (peptide)
peptide: RGSTGTAGGERSGVLNLHTRDNASGSGFKPWYPSNRGHKAETVESCLAKPHTENSFTNVWKDDKTLDRYANYEGCLWNATGVVVCTGDETQCYGTWVPIGLAIPENEGGGSEGGGSEGGGSEGGGTKPPEYGDTPIPGYTYINPLDGTYPPGTEQNPANPNPSLEESQPLNTFMFQNNRFRNRQGALTVYTGTVTQGTDPVKTYYQYTPVSSKAMYDAYWNGKFRDCAFHSGFNEDPFVCEYQGQSSDLPQPPVNAGGGSGGGSGGGSEGGGSEGGGSEGGGSEGGGSGGGSGSGDFDYEKMANANKGAMTENADENALQSDAKGKLDSVATDYGAAIDGFIGDVSGLANGNGATGDFAGSNSQMAQVGDGDNSPLMNNFRQYLPSLPQSVECRPFVFSAGKPYEFSIDCDKINLFRGVFAFLLYVATFMYVFSTFANILRNKES
notes: as for B1
B8: DCX39 (peptide)
peptide: SGSLNAWQPRSWVGGAFRSHANNNLNPKPTMVTRHPTAETVESCLAKPHTENSFTNVWKDDKTLDRYANYEGCLWNATGVVVCTGDETQCYGTWVPIGLAIPENEGGGSEGGGSEGGGSEGGGTKPPEYGDTPIPGYTYINPLDGTYPPGTEQNPANPNPSLEESQPLNTFMFQNNRFRNRQGALTVYTGTVTQGTDPVKTYYQYTPVSSKAMYDAYWNGKFRDCAFHSGFNEDPFVCEYQGQSSDLPQPPVNAGGGSGGGSGGGSEGGGSEGGGSEGGGSEGGGSGGGSGSGDFDYEKMANANKGAMTENADENALQSDAKGKLDSVATDYGAAIDGFIGDVSGLANGNGATGDFAGSNSQMAQVGDGDNSPLMNNFRQYLPSLPQSVECRPFVFSAGKPYEFSIDCDKINLFRGVFAFLLYVATFMYVFSTFANILRNKES
notes: as for B1
B9: HCA3 (peptide)
peptide: RHISEYSFANSHLMGGESKRKGCGINGSFSPTCPRSPTPAFRRTAETVESCLAKPHTENSFTNVWKDDKTLDRYANYEGCLWNATGVVVCTGDETQCYGTWVPIGLAIPENEGGGSEGGGSEGGGSEGGGTKPPEYGDTPIPGYTYINPLDGTYPPGTEQNPANPNPSLEESQPLNTFMFQNNRFRNRQGALTVYTGTVTQGTDPVKTYYQYTPVSSKAMYDAYWNGKFRDCAFHSGFNEDPFVCEYQGQSSDLPQPPVNAGGGSGGGSGGGSEGGGSEGGGSEGGGSEGGGSGGGSGSGDFDYEKMANANKGAMTENADENALQSDAKGKLDSVATDYGAAIDGFIGDVSGLANGNGATGDFAGSNSQMAQVGDGDNSPLMNNFRQYLPSLPQSVECRPFVFSAGKPYEFSIDCDKINLFRGVFAFLLYVATFMYVFSTFANILRNKES
notes: as for B1

Assays:
[1] = target: T1, D2H receptor domain (human D2H …); assay: phage ELISA, plate coated with D2H domain
Description: (§1) 6.6. Receptor ELISA Procedure 96 well plates were coated overnight with GIT receptor, BSA and, optionally, IDE (insulin degrading enzyme, an irrelevant His-fusion protein)or hTF. The plates were blocked for one hour with 0.5% BSA-PBS. After clarification, the amplified phage were diluted 1:100 in […] plus 0.05% Tween 20 in PBS and added to the plates. Following incubation of the plates on a rotator for 1 to 2 hours, the plates were washed 5 times with 1% BSA plus 0.05% Tween 20 in PBS. […] After the plates were washed 5 times, as described above, TMB substrate was added to the wells. The plates were read at 650 nm absorbance.
Binding to fixed Caco-2 cells, D2H and BSA was examined.

[2] = target: T2, HPT1 receptor domain (human intestinal …); assay: phage ELISA, OD on HPT1 over OD on BSA
Description: as §1

[3] = target: T2, HPT1 receptor domain (human intestinal …); assay: phage ELISA, plate coated with HPT1 domain
Description: as §1

[4] = target: T3, hPEPT1 receptor domain (human PEPT1, …); assay: phage ELISA, OD on hPEPT1 over OD on BSA
Description: as §1

[5] = target: T3, hPEPT1 receptor domain (human PEPT1, …); assay: phage ELISA, plate coated with hPEPT1 domain
Description: as §1

Binder | OD [1] | PEPT1/BSA [4] | OD [5] | also measured
B1 | 0.336 OD | – | – | –
B2 | 0.158 OD | – | – | –
B3 | – | – | – | HPT/BSA [2]: 5 ratio; OD [3]: 0.382 OD
B4 | – | 9 ratio | 1.12 OD | –
B5 | 0.293 OD | – | – | –
B6 | – | 11 ratio | 0.807 OD | –
B7 | – | 4 ratio | 0.15 OD | –
B8 | 0.299 OD | – | – | –
B9 | – | – | – | HPT1/BSA [2]: 1 ratio
